Assay [1] has as its target SARS-CoV-2 RBD, truncated version (residues 333 to 529) used for crystallization (SARS-CoV-2, UniProt P0DTC2). In words: crystal structure. To be noted: both partners purified.
Assay [2] concerns the target SARS-CoV-2 RBD, truncated version (residues 333 to 529) (SARS-CoV-2, UniProt P0DTC2). In words: crystal structure. To be noted: both partners purified.

B1: COVA1-16 Fab (Fab, V domains shown)
VH: QVQLVQSGAEVKKPGASVKVSCKASGYTFTSYYMHWVRQAPGQGLEWMGIINSSGGSTSYAQKFQGRVTMTRDTSTSTVYMELSSLRSEDTAVYYCARPPRNYYDRSGYYQRAEYFQHWGQGTLVTVSS
VL: DIQLTQSPSSLSASVGDRVTITCQASQDISNYLNWYQQRPGKAPKLLIYDASNLETGVPSRFSGSGSGTDFTFTISSLQPEDIATYYCQQYDNPPLTFGGGTKLEIK
With B1, the binding result in assay [1] is on record as “binds”.

B2: COVA1-16 Fab (Fab, V domains shown)
VH: QVQLVQSGAEVKKPGASVKVSCKASGYTFTSYYMHWVRQAPGQGLEWMGIINSSGGSTSYAQKFQGRVTMTRDTSTSTVYMELSSLRSEDTAVYYCARPPRNYYDRSGYYQRAEYFQHWGQGTLVTVSS
VL: DIQLTQSPSSLSASVGDRVTITCQASQDISNYLNWYQQRPGKAPKLLIYDASNLETGVPSRFSGSGSGTDFTFTISSLQPEDIATYYCQQYDNPPLTFGGGTKLEIK
On to B2, for which the binding result in assay [2] was “binds”.
